Assay results as given in the RNAGym collection of RNA variant scans (doi:10.7554/elife.80360).

B1: Hammerhead Ribozyme (parent)
chain: ACCGGAUGUGCUUUCCGGUCUGAUGAGUCCGUGAGGACGAAACAG

Variants of: B1
Test: self-cleavage, relative activity (ratio to wild type); higher = more cleavage; co-transcriptional

Variant | self-cleavage
G10U C16U | 1.17
U19A U24G | 0.327
U12C A42C | 0.32
G36C A42C | 0.321
C11A A37C | 1.12
A23C A34G | 0.342
C15G U24C | 0.818
C2A G18A | 0.883
U14G G36C | 0.377
G8U A40G | 0.376
C2G G27U | 0.327
U21C G45A | 0.436
A6G U21G | 0.472
C20U A44U | 0.324
C3A G31C | 0.791
U13G U14G | 0.796
U19A G25U | 0.35
C20A G31C | 0.412
G22A G31C | 0.396
C11A G45A | 0.778
C2U G25C | 0.345
G35A C38A | 0.482
C20G A41G | 0.332
G8A G27C | 0.665

Variant | self-cleavage
G35A A41C | 0.32
C3A G18A | 0.344
C11G G45U | 0.928
U19G U28G | 0.355
C11U G36C | 0.499
G10A G35A | 0.853
A26G G33A | 0.401
G33A G45U | 0.955
G17A U28G | 0.567
G8A G45U | 0.859
G25U A42U | 0.349
G5A C15G | 1.53
G33C A42G | 0.346
G33C A42C | 0.268
G33C A42U | 0.28
G36C A41G | 0.449
U12A G25A | 0.303
G22U A26U | 0.315
C3A A44C | 0.418
U24G U32A | 1.08
U13G C30A | 0.933
G25A A37U | 0.272
G18U C30A | 0.556
C16G U19G | 0.33

Variant | self-cleavage
A1G G10C | 1.61
G10A U28G | 1.15
U28G G39C | 0.323
A1C A23U | 0.362
G25A U32C | 0.417
A1G C38A | 0.973
C29G G35U | 0.665
G22A C38G | 0.329
G4U G45C | 0.324
A1G U24G | 1.68
G8C U12C | 1.11
C3A C11G | 0.562
U7G C30A | 1.21
U28C C30G | 0.322
G27U A37C | 0.308
U14G G45U | 0.776
C2U C38A | 0.854
A37G A44U | 0.595
C16A C30A | 0.911
G31A G33A | 0.887
G10U C11A | 1.25
G8A U14A | 0.866
G17C G27C | 0.354
G8C C29U | 0.758

Variant | self-cleavage
U21C G36U | 0.665
U13C U19G | 0.311
C11A G22A | 0.348
C15G A23U | 0.303
C20A A37G | 0.441
A37U | 0.799
A23U C43G | 0.356
U21C C29G | 0.507
U12C A37U | 0.727
G8A G22C | 0.273
A6G A44G | 1.08
C11U G25U | 0.318
A1C C3U | 0.345
G10C A41G | 0.392
G22C U24C | 0.348
U32A G33A | 0.961
A1U G18A | 0.477
G18A C43U | 0.285
G4U A40C | 0.224
C3G C38U | 0.37
U24C C38A | 0.676
U14G U32G | 1.01
U7C C38A | 0.702
U7C C38U | 0.929

Variant | self-cleavage
A6C U13C | 0.598
G10C U24G | 1.06
G10A C11U | 1.38
C2G G35A | 0.271
U13C C38A | 0.601
U21G C30A | 0.419
G36C A37C | 0.296
G35U C38A | 0.404
U14G A44G | 1.32
U14G A44C | 0.681
G5A U32C | 1.15
C11U U21G | 0.563
A6G U12C | 0.802
G10C G35A | 0.848
U12C U13C | 1.13
G31U A41U | 0.324
G31U A41C | 0.388
A23G C30U | 0.485
G22A A40G | 0.297
U13G U24A | 1.36
C2A A42U | 0.332
C2A U19C | 0.38
U7C U12A | 1.42
A37G A42C | 0.342

Variant | self-cleavage
A37G A42U | 0.32
C16G G25A | 0.357
G8U G18A | 0.684
U13C G36A | 0.701
G17C G36A | 0.361
U7G A26U | 0.717
U12C A41C | 0.299
G18A | 0.831
U28C C43A | 0.289
U12C G27A | 0.605
G39U G45U | 0.445
U19C U32G | 0.642
G5A G18C | 0.386
G4U U12A | 0.547
U32G A44G | 0.898
U12A A23G | 0.394
U19C U24A | 0.776
C16U A34G | 1.08
C3G G10U | 0.638
G18A G45C | 0.446
A1U U14C | 0.531
A6G G27C | 0.45
G10U G25U | 0.314
U12C G17A | 0.79

Variant | self-cleavage
U12C G17U | 0.612
A6C C43A | 0.287
G10C G36U | 0.56
U19G G27U | 0.292
G18U A41U | 0.385
G18U A41G | 0.375
G10C A23U | 0.447
A37U A42U | 0.327
G5C C11A | 0.761
G33C C43A | 0.314
U12G G17U | 0.943
U12C G45U | 0.564
U7G C20G | 0.386
C20G G35A | 0.287
G18U G22U | 0.378
U9A A26G | 0.368
U9A A26U | 0.865
C15G C16A | 0.367
G18A U32C | 0.731
U32G A41U | 0.318
G4C G5A | 0.365
U9A C11U | 0.572
A1G G31C | 1.64
G36C A40C | 0.4

Variant | self-cleavage
G17C G45A | 0.366
U13G A23C | 0.356
C3A C15A | 0.312
A6U G39A | 0.281
A6C G22C | 0.296
C38G C43G | 0.288
G4U G35C | 0.326
U9G C15G | 0.729
U14C C43G | 0.309
U14A U19A | 0.304
U14A U19G | 0.356
G8U C20A | 0.571
U13G U19G | 0.314
C16A A37G | 0.874
A26U G35C | 0.377
A26C A44C | 0.406
A1G A40G | 0.388
A1C C29U | 0.402
G5A C11U | 0.804
G4C C11A | 0.67
C2A U28G | 0.308
C3A C29G | 0.397
C38U A42G | 0.34
C15U A26U | 0.752

Variant | self-cleavage
U14G A41G | 0.3
C11A G17U | 1
U7C C15U | 0.995
A23G A44G | 0.55
G4A G39A | 0.353
C3A U12C | 0.262
C30G G33U | 1.02
A26C G33U | 0.774
U12G G22A | 0.338
A34G A42U | 0.329
C15G U32G | 0.574
C20U U21A | 0.358
A26C G45U | 0.45
C20A A42G | 0.341
G17C C30G | 0.398
G17A C20U | 0.442
C20G G39A | 0.34
U7G G18U | 0.46
C20U G45A | 0.359
U9A C20U | 0.557
C20U G36A | 0.36
G22A G33U | 0.3
C11A G33C | 1.27
G27C G39C | 0.261

Variant | self-cleavage
G27C G39U | 0.31
A34C A42G | 0.254
C3U G35U | 0.761
C20A G22U | 0.341
A1G C20A | 0.54
G25A G31C | 0.326
U19C C20G | 0.289
A6U U13A | 0.747
A1G G39C | 0.394
G18C G45A | 0.393
U24A G33U | 0.78
G22A G45A | 0.369
C30A G39A | 0.348
C30A G39C | 0.303
G10U G18C | 0.682
G10U G18U | 0.877
A26G A41U | 0.25
U28G C43A | 0.323
G10U U19C | 0.665
U19G A42C | 0.424
U14A G45C | 0.636
C2G C29G | 0.354
C43G G45U | 0.835
U7A U19G | 0.25

Variant | self-cleavage
U12A A41G | 0.32
A6G G33U | 0.863
G4A A41U | 0.382
U9A G27A | 0.841
A6U A40C | 0.268
U13A G45A | 0.883
C2U G27U | 0.568
C15A G35A | 0.453
C2A G35A | 0.402
G8U G22A | 0.37
U14C G17U | 0.561
C15A G31C | 0.807
C11G G25U | 0.282
G22A U28G | 0.37
A6G U19C | 0.486
G8U G35U | 0.616
C11U U12C | 1.28
G18A A41G | 0.37
G17A A34C | 0.562
C30U G31A | 1.02
U7A | 1.28
C29U U32A | 0.902
U12C C15G | 0.474
A6G A42G | 0.275

Variant | self-cleavage
C2U G22C | 0.323
C2U G22U | 0.376
C11G A44G | 1.8
G25C A34C | 0.29
U32A G35A | 0.75
C15U A37U | 0.953
C16U G17A | 0.556
G18C A23C | 0.298
G17A C43U | 0.335
C2A U13C | 1.05
U12G A26G | 0.346
A26G C30U | 0.404
U13A A34G | 1.04
U9C U12A | 1.15
G25A A26G | 0.306
G8A U24G | 1.32
U7A A42G | 0.216
G18C G31U | 0.673
A6C U7G | 0.392
C20A C30G | 0.353
C30A G35C | 0.793
A6G U13C | 0.722
U12C C43U | 0.486
U7A A34G | 1.07

Variant | self-cleavage
A37U A44C | 0.306
A34G G35U | 0.847
A37C G39A | 0.295
A37C G39U | 0.281
U19A C20U | 0.303
U13C C43A | 0.35
A1C G17C | 0.391
A1C U12G | 0.325
U12G A40G | 0.326
A26U G27A | 0.518
C16G A26U | 0.433
A44U G45C | 1.86
U13A G35U | 0.727
C2G C16U | 0.299
U32G A40C | 0.372
G8U U14A | 1.15
C20A C43G | 0.25
G4C U12A | 0.766
U12G G45A | 0.719
G8U C15A | 0.884
A23U U32C | 0.311
U12C A26G | 0.308
A1C G31C | 0.503
G8A U28G | 1.16

Variant | self-cleavage
C15U A40U | 0.307
G4C A26G | 0.276
G4C A26U | 0.427
C15U C30G | 0.641
G17C A23C | 0.327
G8C G17C | 0.397
G5A U24G | 0.965
G5C G8A | 0.619
G31A C43A | 0.329
G4C A41U | 0.267
C20A G35C | 0.385
G17A A42U | 0.396
U21A G22A | 0.35
C20U U24A | 0.799
G18C C29U | 0.506
A37C A42C | 0.241
C16G A40U | 0.321
U24A C29A | 0.786
U9G G27A | 0.449
C30U C38G | 0.598
G18C U24G | 0.365
G8U U28A | 0.966
